# Measurements reported in patent publication US20210206873A1.
# Tests used:
# [1] = biological target: human Toll-like Receptor 9 (TLR9) (human) (UniProt Q9NR96); assay: intracellular flow, pDCs; PE isotype control, no block
# [2] = biological target: human Toll-like Receptor 9 (TLR9) (human) (UniProt Q9NR96); assay: intracellular flow, B cells; PE isotype control, no block
# UniProt Q9NR96, sequence (Q9NR96 26-1032): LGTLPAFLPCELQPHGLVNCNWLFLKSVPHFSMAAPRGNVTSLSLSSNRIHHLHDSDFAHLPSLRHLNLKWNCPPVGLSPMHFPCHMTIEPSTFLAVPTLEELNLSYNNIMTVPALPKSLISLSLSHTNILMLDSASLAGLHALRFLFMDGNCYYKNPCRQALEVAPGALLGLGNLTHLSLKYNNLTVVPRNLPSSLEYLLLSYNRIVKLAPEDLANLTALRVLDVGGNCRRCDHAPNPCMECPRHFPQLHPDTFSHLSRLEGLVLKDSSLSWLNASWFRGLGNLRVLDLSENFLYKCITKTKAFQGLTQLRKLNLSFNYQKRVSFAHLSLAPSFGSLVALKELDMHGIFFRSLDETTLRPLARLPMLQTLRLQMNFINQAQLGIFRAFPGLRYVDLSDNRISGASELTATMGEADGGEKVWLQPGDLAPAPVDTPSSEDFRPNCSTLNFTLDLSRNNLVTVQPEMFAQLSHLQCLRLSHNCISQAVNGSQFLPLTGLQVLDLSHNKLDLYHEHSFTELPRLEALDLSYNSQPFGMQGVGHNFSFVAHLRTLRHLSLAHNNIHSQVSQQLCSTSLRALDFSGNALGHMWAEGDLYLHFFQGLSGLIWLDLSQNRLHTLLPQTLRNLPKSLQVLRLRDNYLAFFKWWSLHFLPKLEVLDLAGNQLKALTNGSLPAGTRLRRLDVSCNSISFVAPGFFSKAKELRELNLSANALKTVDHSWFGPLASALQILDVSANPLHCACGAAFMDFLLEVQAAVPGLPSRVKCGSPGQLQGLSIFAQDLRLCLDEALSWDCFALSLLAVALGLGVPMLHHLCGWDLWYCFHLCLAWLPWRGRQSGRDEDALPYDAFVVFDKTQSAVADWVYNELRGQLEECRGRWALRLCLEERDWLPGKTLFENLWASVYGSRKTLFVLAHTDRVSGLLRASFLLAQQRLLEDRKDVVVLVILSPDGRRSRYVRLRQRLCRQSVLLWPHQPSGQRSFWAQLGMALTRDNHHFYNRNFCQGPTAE
MFI [1],MFI [2],Substance
490,142,Rat IgG2a isotype control (antibody)
138,52,Rat IgG2b isotype control (antibody)
